Assay results as given in the supplement of paper PMC9112550, “Optimization of the antimicrobial peptide Bac7 by deep mutational scanning” (BMC Biology, 2022).

The sequences below were run on Escherichia coli TOP10 (assay: shrunken log2 fold change of peptide-encoding DNA abundance (4.5 h post-induction vs induction); higher = less antimicrobial activity (less host growth inhibition)). Details: time post-induction: 4.5 h; library: site-saturation at positions 5, 18, 19, 20.
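Note: peptides expressed intracellularly from a pBAD plasmid library in pooled LB shake-flask culture, induced with 0.3% L-arabinose, DNA abundance read by NGS, three biological replicates, DESeq2 with apeglm shrinkage.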

| Sequence | shrunken log2 fold change |
| --- | --- |
| RRIRERPPRLPRPRPRPTTHPRP | -0.294 |
| RRIRERPPRLPRPRPRPTTNPRP | -0.185 |
| RRIRERPPRLPRPRPRPTVDPRP | -0.0352 |
| RRIRERPPRLPRPRPRPTVYPRP | -0.194 |
| RRIRERPPRLPRPRPRPTWYPRP | -0.217 |
| RRIRERPPRLPRPRPRPTYKPRP | -0.579 |
| RRIRERPPRLPRPRPRPVAFPRP | -0.0756 |
| RRIRERPPRLPRPRPRPVCFPRP | -0.173 |
| RRIRERPPRLPRPRPRPVCLPRP | -0.0994 |
| RRIRERPPRLPRPRPRPVDVPRP | 0.064 |
| RRIRERPPRLPRPRPRPVEMPRP | 0.139 |
| RRIRERPPRLPRPRPRPVGAPRP | 0.392 |
| RRIRERPPRLPRPRPRPVGWPRP | 0.888 |
| RRIRERPPRLPRPRPRPVICPRP | -0.72 |
| RRIRERPPRLPRPRPRPVLAPRP | 0.252 |
| RRIRERPPRLPRPRPRPVLFPRP | -0.141 |
| RRIRERPPRLPRPRPRPVLLPRP | -0.388 |
| RRIRERPPRLPRPRPRPVLTPRP | -0.126 |
| RRIRERPPRLPRPRPRPVMNPRP | -0.0808 |
| RRIRERPPRLPRPRPRPVNRPRP | -0.294 |
| RRIRERPPRLPRPRPRPVQAPRP | 0.014 |
| RRIRERPPRLPRPRPRPVQGPRP | 0.166 |
| RRIRERPPRLPRPRPRPVQVPRP | -0.227 |
| RRIRERPPRLPRPRPRPVQYPRP | -0.418 |
| RRIRERPPRLPRPRPRPVRSPRP | 0.0119 |

| Sequence | shrunken log2 fold change |
| --- | --- |
| RRIRERPPRLPRPRPRPVSRPRP | 0.23 |
| RRIRERPPRLPRPRPRPVSTPRP | -0.199 |
| RRIRERPPRLPRPRPRPVSYPRP | 0.0843 |
| RRIRERPPRLPRPRPRPVVSPRP | -0.0681 |
| RRIRERPPRLPRPRPRPVVTPRP | -0.95 |
| RRIRERPPRLPRPRPRPVWSPRP | 0.158 |
| RRIRERPPRLPRPRPRPVWWPRP | 0.149 |
| RRIRERPPRLPRPRPRPVYLPRP | -0.267 |
| RRIRERPPRLPRPRPRPWCWPRP | 0.315 |
| RRIRERPPRLPRPRPRPWDVPRP | 0.0649 |
| RRIRERPPRLPRPRPRPWEYPRP | 0.0155 |
| RRIRERPPRLPRPRPRPWIFPRP | -0.101 |
| RRIRERPPRLPRPRPRPWIPPRP | 0.0136 |
| RRIRERPPRLPRPRPRPWIWPRP | 0.164 |
| RRIRERPPRLPRPRPRPWLDPRP | 0.121 |
| RRIRERPPRLPRPRPRPWLRPRP | 0.0269 |
| RRIRERPPRLPRPRPRPWMDPRP | -0.101 |
| RRIRERPPRLPRPRPRPWMLPRP | -0.234 |
| RRIRERPPRLPRPRPRPWMRPRP | 0.079 |
| RRIRERPPRLPRPRPRPWNAPRP | 0.0455 |
| RRIRERPPRLPRPRPRPWNYPRP | -0.00131 |
| RRIRERPPRLPRPRPRPWPPPRP | 0.045 |
| RRIRERPPRLPRPRPRPWPQPRP | -0.0216 |
| RRIRERPPRLPRPRPRPWSLPRP | -0.0112 |
| RRIRERPPRLPRPRPRPWTSPRP | -0.028 |

| Sequence | shrunken log2 fold change |
| --- | --- |
| RRIRERPPRLPRPRPRPWVFPRP | -0.0105 |
| RRIRERPPRLPRPRPRPWWNPRP | -0.0135 |
| RRIRERPPRLPRPRPRPYALPRP | -0.000856 |
| RRIRERPPRLPRPRPRPYCAPRP | -0.533 |
| RRIRERPPRLPRPRPRPYCLPRP | -0.123 |
| RRIRERPPRLPRPRPRPYCNPRP | -0.143 |
| RRIRERPPRLPRPRPRPYDSPRP | -0.0594 |
| RRIRERPPRLPRPRPRPYFQPRP | -0.967 |
| RRIRERPPRLPRPRPRPYFRPRP | -0.622 |
| RRIRERPPRLPRPRPRPYGVPRP | -0.128 |
| RRIRERPPRLPRPRPRPYISPRP | -0.977 |
| RRIRERPPRLPRPRPRPYKNPRP | -0.756 |
| RRIRERPPRLPRPRPRPYMLPRP | -1.42 |
| RRIRERPPRLPRPRPRPYPFPRP | -0.52 |
| RRIRERPPRLPRPRPRPYQKPRP | -0.0207 |
| RRIRERPPRLPRPRPRPYSPPRP | -0.0774 |
| RRIRERPPRLPRPRPRPYVDPRP | -0.0122 |
| RRIRERPPRLPRPRPRPYVKPRP | 0.04 |
| RRIRERPPRLPRPRPRPYWCPRP | -1.14 |
| RRIRERPPRLPRPRPRPYWQPRP | -0.172 |
| RRIRERPPRLPRPRPRPYWSPRP | -0.568 |
| RRIRERPPRLPRPRPRPYYRPRP | -0.165 |
| RRIRFRPPRLPRPRPRPACCPRP | 0.229 |
| RRIRFRPPRLPRPRPRPACQPRP | -0.0497 |
| RRIRFRPPRLPRPRPRPACRPRP | 0.192 |

| Sequence | shrunken log2 fold change |
| --- | --- |
| RRIRFRPPRLPRPRPRPADIPRP | 0.131 |
| RRIRFRPPRLPRPRPRPAERPRP | 0.0603 |
| RRIRFRPPRLPRPRPRPAGSPRP | -0.139 |
| RRIRFRPPRLPRPRPRPAGWPRP | 0.674 |
| RRIRFRPPRLPRPRPRPAIKPRP | -0.328 |
| RRIRFRPPRLPRPRPRPAKFPRP | -0.265 |
| RRIRFRPPRLPRPRPRPAKYPRP | -0.381 |
| RRIRFRPPRLPRPRPRPALDPRP | 0.436 |
| RRIRFRPPRLPRPRPRPAPCPRP | 0.294 |
| RRIRFRPPRLPRPRPRPAPIPRP | 0.108 |
| RRIRFRPPRLPRPRPRPAQRPRP | 0.302 |
| RRIRFRPPRLPRPRPRPARCPRP | 0.44 |
| RRIRFRPPRLPRPRPRPARIPRP | -0.0549 |
| RRIRFRPPRLPRPRPRPARPPRP | 0.287 |
| RRIRFRPPRLPRPRPRPATEPRP | 0.0616 |
| RRIRFRPPRLPRPRPRPATGPRP | 1.21 |
| RRIRFRPPRLPRPRPRPATPPRP | 0.315 |
| RRIRFRPPRLPRPRPRPAVYPRP | -0.35 |
| RRIRFRPPRLPRPRPRPAWPPRP | 0.268 |
| RRIRFRPPRLPRPRPRPAYKPRP | -0.314 |
| RRIRFRPPRLPRPRPRPCAFPRP | -0.393 |
| RRIRFRPPRLPRPRPRPCDCPRP | -0.0184 |
| RRIRFRPPRLPRPRPRPCEWPRP | 0.134 |
| RRIRFRPPRLPRPRPRPCEYPRP | -0.000476 |
| RRIRFRPPRLPRPRPRPCFMPRP | -0.213 |

| Sequence | shrunken log2 fold change |
| --- | --- |
| RRIRFRPPRLPRPRPRPCFSPRP | -0.759 |
| RRIRFRPPRLPRPRPRPCGAPRP | 0.0828 |
| RRIRFRPPRLPRPRPRPCGCPRP | -0.0484 |
| RRIRFRPPRLPRPRPRPCGLPRP | -0.00916 |
| RRIRFRPPRLPRPRPRPCHPPRP | 1.35 |
| RRIRFRPPRLPRPRPRPCHSPRP | -0.0231 |
| RRIRFRPPRLPRPRPRPCIEPRP | -0.422 |
| RRIRFRPPRLPRPRPRPCIFPRP | -0.361 |
| RRIRFRPPRLPRPRPRPCLLPRP | -1.19 |
| RRIRFRPPRLPRPRPRPCLNPRP | -0.244 |
| RRIRFRPPRLPRPRPRPCLVPRP | -0.208 |
| RRIRFRPPRLPRPRPRPCMDPRP | -0.336 |
| RRIRFRPPRLPRPRPRPCMVPRP | 1.01 |
| RRIRFRPPRLPRPRPRPCNFPRP | -0.183 |
| RRIRFRPPRLPRPRPRPCQCPRP | -0.035 |
| RRIRFRPPRLPRPRPRPCQWPRP | 0.0155 |
| RRIRFRPPRLPRPRPRPCRHPRP | 0.0121 |
| RRIRFRPPRLPRPRPRPCTLPRP | -0.471 |
| RRIRFRPPRLPRPRPRPCVCPRP | 0.143 |
| RRIRFRPPRLPRPRPRPCVKPRP | -0.123 |
| RRIRFRPPRLPRPRPRPCVLPRP | -0.401 |
| RRIRFRPPRLPRPRPRPCVYPRP | -0.0699 |
| RRIRFRPPRLPRPRPRPCYAPRP | -0.618 |
| RRIRFRPPRLPRPRPRPDAQPRP | 0.483 |
| RRIRFRPPRLPRPRPRPDCGPRP | -0.107 |

| Sequence | shrunken log2 fold change |
| --- | --- |
| RRIRFRPPRLPRPRPRPDEWPRP | 0.0983 |
| RRIRFRPPRLPRPRPRPDGMPRP | -0.0385 |
| RRIRFRPPRLPRPRPRPDHFPRP | -0.331 |
| RRIRFRPPRLPRPRPRPDHVPRP | 0.0266 |
| RRIRFRPPRLPRPRPRPDINPRP | -0.302 |
| RRIRFRPPRLPRPRPRPDKIPRP | -0.0546 |
| RRIRFRPPRLPRPRPRPDKVPRP | -0.281 |
| RRIRFRPPRLPRPRPRPDLVPRP | -0.0465 |
| RRIRFRPPRLPRPRPRPDMEPRP | -0.16 |
| RRIRFRPPRLPRPRPRPDMKPRP | -0.25 |
| RRIRFRPPRLPRPRPRPDNCPRP | -0.0284 |
| RRIRFRPPRLPRPRPRPDNHPRP | -0.232 |
| RRIRFRPPRLPRPRPRPDNMPRP | -0.748 |
| RRIRFRPPRLPRPRPRPDNWPRP | -0.25 |
| RRIRFRPPRLPRPRPRPDPKPRP | 0.117 |
| RRIRFRPPRLPRPRPRPDPNPRP | -0.072 |
| RRIRFRPPRLPRPRPRPDPYPRP | -0.437 |
| RRIRFRPPRLPRPRPRPDQVPRP | 0.0246 |
| RRIRFRPPRLPRPRPRPDRMPRP | -0.00758 |
| RRIRFRPPRLPRPRPRPDSCPRP | -0.011 |
| RRIRFRPPRLPRPRPRPDSDPRP | -0.0137 |
| RRIRFRPPRLPRPRPRPDSNPRP | -0.758 |
| RRIRFRPPRLPRPRPRPDSSPRP | -0.055 |
| RRIRFRPPRLPRPRPRPDTLPRP | -0.0946 |
| RRIRFRPPRLPRPRPRPDVEPRP | 0.00816 |
